Experimental findings from paper PMC4415419, “The bZIP transcription factor HY5 interacts with the promoter of the monoterpene synthase gene QH6 in modulating its rhythmic expression” are described below.

The data set concerns the target T1, GST-HY5 (Arabidopsis thaliana, UniProt O24646 1-168).
T1 sequence: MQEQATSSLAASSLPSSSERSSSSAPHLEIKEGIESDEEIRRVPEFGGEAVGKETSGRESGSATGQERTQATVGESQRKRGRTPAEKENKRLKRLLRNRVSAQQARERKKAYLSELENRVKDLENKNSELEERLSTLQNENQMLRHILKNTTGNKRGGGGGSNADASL
As to the kind of experiment: EMSA; 5 ug protein, 20 fmol probe; shift abolished by unlabeled 52-bp competitor (0.5-4 pmol); LightShift Chemiluminescent EMSA kit (Pierce), 20 uL, 8% native PAGE in 1x TBE; salt, pH and temperature not stated. The note with it: protein: recombinant; tags: N-terminal GST (pGEX-4T-1); chain copies: 2; label: biotin; blunt. (Mobility shift assays separate free from complexed probe on a gel.)

B1: 391-442 (QH6 promoter G-box probe) (dsDNA)
DNA 1: CCTTTAAGTTGCTCTATTTTGACACGTGGCAAAATAATATCTATCTACCCAC
DNA 2: GTGGGTAGATAGATATTATTTTGCCACGTGTCAAAATAGAGCAACTTAAAGG
As to B1, the binding result is reported as “binds”.
